Experimental data published in patent US20250361280A1 (Protagonist Therapeutics, Inc., priority 2022, published 2025).
One block for each molecule: values may come before it.

How the values were obtained:
human ferroportin = target: T1, human ferroportin (Homo sapiens, UniProt Q9NP59); experiment: FPN internalization assay (FPN activity assay), loss of ferroportin-GFP fluorescence; assay type: cell-based; settings: Table 5 reference compounds; value in μM; read-out: Potency EC50
T1 sequence (Q9NP59 1-571): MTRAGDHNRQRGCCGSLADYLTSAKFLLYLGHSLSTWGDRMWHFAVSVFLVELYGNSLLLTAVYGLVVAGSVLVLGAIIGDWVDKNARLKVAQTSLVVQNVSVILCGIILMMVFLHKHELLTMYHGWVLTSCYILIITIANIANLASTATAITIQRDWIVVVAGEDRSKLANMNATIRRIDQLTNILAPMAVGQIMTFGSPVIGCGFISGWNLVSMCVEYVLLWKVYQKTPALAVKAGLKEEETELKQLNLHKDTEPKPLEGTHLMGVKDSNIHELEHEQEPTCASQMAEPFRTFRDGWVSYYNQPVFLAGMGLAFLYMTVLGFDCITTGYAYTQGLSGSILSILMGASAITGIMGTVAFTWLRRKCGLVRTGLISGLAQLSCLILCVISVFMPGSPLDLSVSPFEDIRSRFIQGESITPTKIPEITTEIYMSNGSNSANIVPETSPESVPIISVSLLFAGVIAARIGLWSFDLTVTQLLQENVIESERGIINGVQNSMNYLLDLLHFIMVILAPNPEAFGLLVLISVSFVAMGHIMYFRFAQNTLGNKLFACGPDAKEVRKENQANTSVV

[1] = target: T2, human ferroportin (SLC40A1) fused in frame with the GFP protein, stably expressed in HEK293 cells (human) (UniProt Q9NP59); experiment: cell-based or functional assay
T2 sequence (looked up): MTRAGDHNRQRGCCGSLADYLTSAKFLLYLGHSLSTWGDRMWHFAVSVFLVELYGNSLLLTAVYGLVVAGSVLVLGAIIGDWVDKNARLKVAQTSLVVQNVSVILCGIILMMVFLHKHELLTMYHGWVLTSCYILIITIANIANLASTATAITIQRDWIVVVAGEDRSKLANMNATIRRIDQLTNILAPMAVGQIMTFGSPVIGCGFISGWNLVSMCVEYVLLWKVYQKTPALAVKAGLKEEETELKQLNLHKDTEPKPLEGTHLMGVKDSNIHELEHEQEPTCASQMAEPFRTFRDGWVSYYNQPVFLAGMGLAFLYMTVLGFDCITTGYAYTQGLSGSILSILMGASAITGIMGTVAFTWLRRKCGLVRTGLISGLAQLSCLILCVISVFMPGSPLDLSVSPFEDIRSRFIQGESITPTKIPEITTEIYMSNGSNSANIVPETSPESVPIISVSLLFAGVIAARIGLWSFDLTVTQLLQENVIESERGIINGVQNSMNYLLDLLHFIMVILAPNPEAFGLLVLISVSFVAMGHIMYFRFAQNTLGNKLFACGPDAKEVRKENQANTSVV

EC50 (human ferroportin): > 10 µM
Molecule: CC[C@@H](C)[C@@H](NC(=O)[C@H](N)Cc1ccccc1)C(=O)N[C@H](CS)C(=O)N[C@@H](C(=O)N1CCC[C@@H]1C(=O)N[C@H](Cc1ccccc1)C(=O)N[C@H](Cc1c[nH]cn1)C(=O)N[C@@H](C(=O)N[C@H](CC(=O)O)C(N)=O)[C@H](C)O)[C@H](C)CC [RI-Mini Hepcidin, Hy-DPhe-DIle-DCys-DIle-DPro-DPhe-DHis-DThr-DAsp-NH2]

Potency EC50 (nM) [1]: > 10000 nM
Molecule: RI-Mini Hepcidin, Hy-DPhe-DIle-DCys-DIle-DPro-DPhe-DHis-DThr-DAsp-NH2 (peptide)

Potency EC50 [1]: 712 nM
Molecule: H-DTHFPICIF-NH2 (peptide, from a related filing) [Mini-Hepcidin 1-9, Hy-…-NH2]
